From US7037492 come the findings set out here.

The target of this assay is IL-1 receptors (on articular chondrocytes). Briefly: cell-based or functional assay.

In turn, “human interleukin-1 receptor antagonist protein (IRAP) (from UniProt P18510 26-177) (ligand)” yielded an inhibition of gelatinase production by IL-1 treated chondrocytes, 5 U/ml IL-1, first culture's conditioned medium of 100%; an inhibition of gelatinase production by IL-1 treated chondrocytes, 5 U/ml IL-1, second culture's conditioned medium of 41%; an inhibition of gelatinase production by IL-1 treated chondrocytes, 10 U/ml IL-1, first culture's conditioned medium of 38%; an inhibition of gelatinase production by IL-1 treated chondrocytes, 10 U/ml IL-1, second culture's conditioned medium of 18%.
